The nature of the data set: protein stability index of a GFP-peptide fusion (yeast GPS) (PSI 1-4); higher = more stable; sorted into four equal gates, so the index is relative within each strain. Summed up:
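Sequencing reads from sorted gates were used to score each peptide. The library consisted of tiled 17-residue yeast protein peptides fused downstream of GFP on a Cherry-expressing plasmid, pooled and carried in yeast. Mid-log cultures in leucine-free medium were split into four equal gates by GFP/Cherry ratio, and each gate's plasmids were PCR-amplified and Illumina-sequenced. The protein stability index adds up, over all gates, the read frequency multiplied by the gate number.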

± gives the uncertainty stated by the source.

On to STKVENSAIIQNLRKEL [YIL149C/MLP2], for which the protein stability index (doa10∆) turned out to be 3.2 ± 0.084, the protein stability index (pdr5∆) came to 2.88 ± 0.12, the protein stability index (san1∆) amounted to 3.28 ± 0.071 and the protein stability index (ubr1∆) came to 3.3 ± 0.051.

For the sequence ATVDEFPLCVHLVSNEL [RPL10], the protein stability index by setting is: (doa10∆) 3.01 ± 0.073; (pdr5∆) 2.93 ± 0.067; (san1∆) 3.05 ± 0.069; (ubr1∆) 2.99 ± 0.053.

Turning to TKIKDAEEDSLLSGEDL [YJL039C/NUP192], the protein stability index was determined as 3.35 ± 0.16 (doa10∆), 3.45 ± 0.086 (pdr5∆), 3.14 ± 0.16 (san1∆) and 3.38 ± 0.12 (ubr1∆).

Take LYRSIESGEFDFDLFKE [YJL039C/NUP192]: the protein stability index is, setting by setting: (doa10∆) 3.1 ± 0.12; (pdr5∆) 2.93 ± 0.1; (san1∆) 3.01 ± 0.069; (ubr1∆) 2.91 ± 0.11.

As to TSAVELGAIEQILIFAA [YJL039C/NUP192], the protein stability index (doa10∆) worked out at 2.13 ± 0.16, the protein stability index (pdr5∆) turned out to be 2.77 ± 0.071, the protein stability index (san1∆) stood at 1.77 ± 0.11 and the protein stability index (ubr1∆) was determined as 3.32 ± 0.13.

Regarding PSVAAEYVYFFNNTSVI [RPC40], the protein stability index amounted to 2.09 ± 0.056 (doa10∆), 1.48 ± 0.057 (pdr5∆), 1.54 ± 0.088 (san1∆) and 1.79 ± 0.039 (ubr1∆).

Take KTKLWGFKWLNKLDEYH [LIN1]: under “ubr1∆”, the protein stability index worked out at 3.22 ± 0.2.

Take ATQKESLEMVPKDTSAA [RGR1]: the protein stability index was found to be 3.25 ± 0.087 (doa10∆), 3.25 ± 0.07 (pdr5∆), 3.09 ± 0.055 (san1∆) and 3.17 ± 0.05 (ubr1∆).

For LQRASSKMGAPWCVKPE [ITC1], the protein stability index (doa10∆) came to 3.14 ± 0.089, the protein stability index (pdr5∆) came out at 3.29 ± 0.078, the protein stability index (san1∆) was found to be 3.33 ± 0.055 and the protein stability index (ubr1∆) came out at 3.27 ± 0.066.

For the sequence ENLNRNWRGREHWKVRN [BRN1], the protein stability index was found to be 3.57 ± 0.11 (doa10∆), 3.33 ± 0.14 (pdr5∆), 3.37 ± 0.063 (san1∆) and 3.5 ± 0.08 (ubr1∆).

Sequence SLAWSADGQTLFAGYTD [ASC1] displayed a protein stability index (doa10∆) of 2.66 ± 0.08, a protein stability index (pdr5∆) of 3.05 ± 0.091, a protein stability index (san1∆) of 2.7 ± 0.075 and a protein stability index (ubr1∆) of 3.09 ± 0.1.

EDFEHNNLSSMNLDFDI [MCD1]: the protein stability index is, setting by setting: (doa10∆) 2.76 ± 0.053; (pdr5∆) 3.24 ± 0.061; (san1∆) 3.24 ± 0.04; (ubr1∆) 3.24 ± 0.033.

With GGLRPFGVSFIYAGYDD [PRE9], the protein stability index reads like this: (doa10∆) 2.44 ± 0.08; (pdr5∆) 2.52 ± 0.075; (san1∆) 2.26 ± 0.11; (ubr1∆) 2.27 ± 0.083.

Consider LLVGLIKTFYWLEQFLS [NUT1], for which the protein stability index by setting is: (doa10∆) 2.24 ± 0.12; (pdr5∆) 1.11 ± 0.076; (san1∆) 1.34 ± 0.14; (ubr1∆) 1.24 ± 0.074.

With LLENFANFKTSKKYQLA [RRP6], the protein stability index reads like this: (doa10∆) 2.09 ± 0.25; (pdr5∆) 2.57 ± 0.2; (san1∆) 2.27 ± 0.21; (ubr1∆) 2.33 ± 0.17.

Take TTTRIQSQQAQPSDVMF [MED2]: the protein stability index runs as follows: (doa10∆) 2.91 ± 0.061; (pdr5∆) 2.79 ± 0.057; (san1∆) 3 ± 0.063; (ubr1∆) 2.87 ± 0.043.

Consider FAGVASKKVTSGVPRLK [RPO21], for which the protein stability index by setting is: (doa10∆) 3.03 ± 0.2; (pdr5∆) 3.08 ± 0.2.

As for TKLGFTFTIKEFVSYYY [SNU114], the protein stability index by setting is: (doa10∆) 1.88 ± 0.054; (pdr5∆) 2.02 ± 0.054; (san1∆) 1.73 ± 0.067; (ubr1∆) 1.76 ± 0.041.

With GKIEKIAQSKKKNNKIK [SRP21], the protein stability index reads like this: (doa10∆) 3.11 ± 0.094; (pdr5∆) 3.02 ± 0.078; (san1∆) 3.01 ± 0.066; (ubr1∆) 3.14 ± 0.057.

ALFVFYSPNTLGHPDNY [COB]: the protein stability index is 1.39 ± 0.09 (doa10∆), 1.36 ± 0.069 (pdr5∆), 2.06 ± 0.11 (san1∆) and 1.87 ± 0.054 (ubr1∆).

Regarding TVELQVGLKNYDPQRDK [RPL1A], the protein stability index (doa10∆) turned out to be 3.05 ± 0.091, the protein stability index (pdr5∆) came to 3.12 ± 0.082, the protein stability index (san1∆) turned out to be 3.12 ± 0.094 and the protein stability index (ubr1∆) was determined as 3.18 ± 0.076.

Take HIQGFPTLGERLDNLQD [DSN1]: the protein stability index was found to be 3.34 ± 0.11 (doa10∆), 3.39 ± 0.11 (pdr5∆), 3.16 ± 0.046 (san1∆) and 3.05 ± 0.073 (ubr1∆).

Turning to PEGLLKSLWDYVKKNTE [TAF14], the protein stability index (doa10∆) was 3.01 ± 0.17, the protein stability index (pdr5∆) came out at 2.12 ± 0.076 and the protein stability index (ubr1∆) was found to be 3.13 ± 0.094.

Consider FDKNTKTTPNTASSEAS [YMR153W/NUP53], for which the protein stability index was determined as 2.99 ± 0.051 (doa10∆), 2.98 ± 0.053 (pdr5∆), 2.9 ± 0.036 (san1∆) and 2.8 ± 0.043 (ubr1∆).

In the case of NGNWEVGVHIADVTHFV [DIS3], the protein stability index reads like this: (doa10∆) 2.55 ± 0.052; (pdr5∆) 2.09 ± 0.061; (san1∆) 2.9 ± 0.047; (ubr1∆) 2.62 ± 0.048.

As to NKTLTLDLKECYQFAEY [ARP7], the protein stability index was 1.96 ± 0.089 (doa10∆), 2.3 ± 0.072 (pdr5∆), 1.9 ± 0.17 (san1∆) and 2.69 ± 0.1 (ubr1∆).

For the sequence LVALKRNADELSSYQKK [PRE5], the protein stability index was 2.4 ± 0.048 (doa10∆), 2.43 ± 0.041 (pdr5∆), 2.68 ± 0.043 (san1∆) and 2.28 ± 0.033 (ubr1∆).

For IIPQDILDCVVTNSMRQ [YJR042W/NUP85], the protein stability index stood at 3.01 ± 0.069 (doa10∆), 3.15 ± 0.072 (pdr5∆), 3.35 ± 0.044 (san1∆) and 2.94 ± 0.063 (ubr1∆).

As to SVLYPDELEDDTLNETN [RRP43], the protein stability index is 3 ± 0.082 (doa10∆), 3.08 ± 0.071 (pdr5∆), 3.19 ± 0.08 (san1∆) and 3.11 ± 0.062 (ubr1∆).

On to VFHAAFEGDSNMLICAP [BRR2], for which the protein stability index by setting is: (doa10∆) 2.25 ± 0.048; (pdr5∆) 2.41 ± 0.042; (san1∆) 2.33 ± 0.045; (ubr1∆) 2.615 ± 0.026.

Take ALSGLYYKNFHNSVKRY [SNM1]: the protein stability index is 1.59 ± 0.27 (doa10∆), 1.17 ± 0.17 (san1∆) and 1.22 ± 0.093 (ubr1∆).

Turning to YERRFGPYFVGPVVAGI [PUP3], the protein stability index runs as follows: (doa10∆) 3.25 ± 0.22; (pdr5∆) 2.81 ± 0.18; (ubr1∆) 3.11 ± 0.16.

Consider TKRQKHFAWLPTHIWNA [POP1], for which the protein stability index reads like this: (doa10∆) 2.03 ± 0.031; (pdr5∆) 1.82 ± 0.036; (san1∆) 1.55 ± 0.05; (ubr1∆) 1.74 ± 0.021.

On to LYFEIIHGVLKNVDREV [FAS2], for which the protein stability index runs as follows: (doa10∆) 3.04 ± 0.09; (pdr5∆) 2.04 ± 0.099; (san1∆) 2.63 ± 0.13; (ubr1∆) 1.64 ± 0.18.

The sequence ITLIDSASLHLNYGVYL [RET1] came in with a protein stability index (doa10∆) of 2.4 ± 0.076, a protein stability index (pdr5∆) of 2.27 ± 0.081, a protein stability index (san1∆) of 2.83 ± 0.097 and a protein stability index (ubr1∆) of 2.4 ± 0.063.

As to VGGHNVTIREQINIMPS [SIR3], the protein stability index is 2.91 ± 0.069 (doa10∆), 2.8 ± 0.066 (pdr5∆), 2.71 ± 0.071 (san1∆) and 2.94 ± 0.067 (ubr1∆).
